Square brackets hold non-standard residues; d marks the D form. GABA = NCCCC(=O)O
T1: BC2T S8T
T1 construct: positional scanning library member
T1 peptide: Ac-PDRKAAVTHWQQ-NH2

T2: BC2T Q11G
T2 construct: positional scanning library member
T2 peptide: Ac-PDRKAAVSHWGQ-NH2

T3: BC2T W10N
T3 construct: positional scanning library member
T3 peptide: Ac-PDRKAAVSHNQQ-NH2

T4: BC2T S8Y
T4 construct: positional scanning library member
T4 peptide: Ac-PDRKAAVYHWQQ-NH2

T5: BC2T S8C(Abu) (also: Abu described as gamma-amino butyric acid)
T5 construct: positional scanning library member
T5 peptide: Ac-PDRKAAV[GABA]HWQQ-NH2

T6: BC2T Q12N
T6 construct: positional scanning library member
T6 peptide: Ac-PDRKAAVSHWQN-NH2

T7: BC2T Q12M
T7 construct: positional scanning library member
T7 peptide: Ac-PDRKAAVSHWQM-NH2

T8: BC2T Q11F
T8 construct: positional scanning library member
T8 peptide: Ac-PDRKAAVSHWFQ-NH2

T9: BC2T S8A
T9 construct: positional scanning library member
T9 peptide: Ac-PDRKAAVAHWQQ-NH2

T10: BC2T H9N
T10 construct: positional scanning library member
T10 peptide: Ac-PDRKAAVSNWQQ-NH2

T11: BC2T W10S
T11 construct: positional scanning library member
T11 peptide: Ac-PDRKAAVSHSQQ-NH2

T12: BC2T S8P
T12 construct: positional scanning library member
T12 peptide: Ac-PDRKAAVPHWQQ-NH2

T13: BC2T W10Q
T13 construct: positional scanning library member
T13 peptide: Ac-PDRKAAVSHQQQ-NH2

T14: BC2T Q12F
T14 construct: positional scanning library member
T14 peptide: Ac-PDRKAAVSHWQF-NH2

T15: BC2T Q11C(Abu) (SMILES …)
T15 construct: positional scanning library member
T15 peptide: Ac-PDRKAAVSHW[GABA]Q-NH2

T16: BC2T H9S
T16 construct: positional scanning library member
T16 peptide: Ac-PDRKAAVSSWQQ-NH2

T17: BC2T Q11A
T17 construct: positional scanning library member
T17 peptide: Ac-PDRKAAVSHWAQ-NH2

T18: BC2T W10C(Abu) (SMILES …)
T18 construct: positional scanning library member
T18 peptide: Ac-PDRKAAVSH[GABA]QQ-NH2

T19: BC2T H9W
T19 construct: positional scanning library member
T19 peptide: Ac-PDRKAAVSWWQQ-NH2


Key:
Test in all cases: positional peptide library pulldown on immobilised Nb, LC-MS of supernatant; signal ratio to control GFP-Nb (1 = not captured, near 0 = captured)
BC2T S8T = biological target: T1, BC2T S8T
Procedure, shortened: (§1)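 Unbound peptide left in supernatant after 1 h pulldown in PBS/0.01% CHAPS measured by reversed-phase LC-MS (8–30% eluent B gradient, 20 min).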

BC2T H9(I/L1) = biological target: T20, BC2T H9(I/L1) (N-terminal acetyl; C-terminal amide)
T20 construct: positional scanning library member; I or L not resolved
Procedure, shortened: as §1

BC2T Q11G = biological target: T2, BC2T Q11G
Procedure, shortened: as §1

BC2T W10N = biological target: T3, BC2T W10N
Procedure, shortened: as §1

BC2T S8Y = biological target: T4, BC2T S8Y
Procedure, shortened: as §1

BC2T S8C(Abu) = biological target: T5, BC2T S8C(Abu)
Procedure, shortened: as §1

BC2T Q12N = biological target: T6, BC2T Q12N
Procedure, shortened: as §1

BC2T H9(I/L2) = biological target: T21, BC2T H9(I/L2) (N-terminal acetyl; C-terminal amide)
T21 construct: positional scanning library member; I or L not resolved
Procedure, shortened: as §1

BC2T Q12M = biological target: T7, BC2T Q12M
Procedure, shortened: as §1

BC2T Q11F = biological target: T8, BC2T Q11F
Procedure, shortened: as §1

BC2T S8A = biological target: T9, BC2T S8A
Procedure, shortened: as §1

BC2T H9N = biological target: T10, BC2T H9N
Procedure, shortened: as §1

BC2T W10S = biological target: T11, BC2T W10S
Procedure, shortened: as §1

BC2T S8P = biological target: T12, BC2T S8P
Procedure, shortened: as §1

BC2T W10Q = biological target: T13, BC2T W10Q
Procedure, shortened: as §1

BC2T Q12F = biological target: T14, BC2T Q12F
Procedure, shortened: as §1

BC2T Q11C(Abu) = biological target: T15, BC2T Q11C(Abu)
Procedure, shortened: as §1

BC2T H9S = biological target: T16, BC2T H9S
Procedure, shortened: as §1

BC2T Q11A = biological target: T17, BC2T Q11A
Procedure, shortened: as §1

BC2T W10C(Abu) = biological target: T18, BC2T W10C(Abu)
Procedure, shortened: as §1

BC2T H9W = biological target: T19, BC2T H9W
Procedure, shortened: as §1

Binder	ratio (BC2T S8T)	ratio (BC2T H9(I/L1))	ratio (BC2T Q11G)	ratio (BC2T W10N)	ratio (BC2T S8Y)	ratio (BC2T S8C(Abu))	ratio (BC2T Q12N)	ratio (BC2T H9(I/L2))	ratio (BC2T Q12M)	ratio (BC2T Q11F)	ratio (BC2T S8A)	ratio (BC2T H9N)	ratio (BC2T W10S)	ratio (BC2T S8P)	ratio (BC2T W10Q)	ratio (BC2T Q12F)	ratio (BC2T Q11C(Abu))	ratio (BC2T H9S)	ratio (BC2T Q11A)	ratio (BC2T W10C(Abu))	also measured
BC2 nanobody (VHH, immobilised on beads in this assay; also called BC2-Nb; BC2 nanotrap (immobilised)) VHH: QVQLVESGGGLVQPGGSLTLSCTASGFTLDHYDIGWFRQAPGKEREGVSCINNSDDDTYYADSVKGRFTIFMDNAKDTVYLQMNSLKPEDTAIYYCAEARGCKRGRYEYDFWGQGTQVTVSS	0.1	0.3	0.1	1	0.6	0	0.1	0.1	0.1	0	0	0.1	1.1	0.7	1.1	0.2	0.1	0.2	0.1	1	ratio (BC2T H9W): 0.1
BC2-NbR106S (VHH, headlock mutant of BC2-Nb; immobilised on beads in this assay) VHH: QVQLVESGGGLVQPGGSLTLSCTASGFTLDHYDIGWFRQAPGKEREGVSCINNSDDDTYYADSVKGRFTIFMDNAKDTVYLQMNSLKPEDTAIYYCAEARGCKRGSYEYDFWGQGTQVTVSS	0.2	0.5	0.5	1.1	0.9	0.1	0.2	0.3	0.3	0.2	0.1	0.3	1.1	1	1.1	0.4	0.3	0.5	0.4	1	ratio (BC2T H9W): 0.1

— patent US20170137467A1 (CHROMOTEK, published 2017)
